From US20150344570A1 (published 2015)

T1: FcγRIIb extracellular domain with C-terminal His tag (human, UniProt P31994 43-217)
T1 construct: extracellular domain; also called FcgRIIb; 2b
T1 sequence (looked up): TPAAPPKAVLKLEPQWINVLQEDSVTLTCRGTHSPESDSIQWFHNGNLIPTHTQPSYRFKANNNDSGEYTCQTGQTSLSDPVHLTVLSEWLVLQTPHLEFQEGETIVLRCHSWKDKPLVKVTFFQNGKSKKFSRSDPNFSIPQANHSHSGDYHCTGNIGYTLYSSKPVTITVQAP


Key:
[1] = target: T2, FcγRIa extracellular domain with C-terminal His tag (human, UniProt P12314 16-292); test: SPR (Biacore); He/Con_1a divided by He/Con_2b (FcγRIa binding over FcγRIIb binding)
T2 construct: extracellular domain; also called FcgRI; 1a
Experimental: (§1) The heterodimerized antibodies He Abs in which one of the H chains was introduced with an alteration were assayed for their binding activities to each activating FcγR and inhibitory FcγR according to the method described in Example 4. […] The activating FcγRs in FIGS. 26, 27, 28, and 29 are FcγRIa, FcγRIIa (R), FcγRIIa (H), and FcγRIIIa, respectively.
(§2) Analysis of interaction between objective antibody and the FcγR was carried out using Biacore T100 (GE Healthcare). HBS-EP+ (GE Healthcare) was used as the running buffer, and the measurement temperature was set to 25° C. Chips produced by immobilizing the antigen peptide by the amine coupling method to a Series S Sencor Chip CM5 (GE Healthcare), or alternatively, chips produced by allowing preliminarily biotinylated antigen peptides to interact with and immobilize onto a Series S Sensor Chip SA (certified) (GE Healthcare) were used. Antibodies of interest were captured onto an antigen peptide-immobilized chip, and allowed to interact to each FcγR diluted with running buffer. To regenerate and repeatedly use the chip, the antibodies captured on the chip were washed off by reacting 10 mM glycine-HCl, pH 1.5.

[2] = target: T2, FcγRIa extracellular domain with …; test: SPR (Biacore), antibody captured via antigen peptide, FcγR as analyte; relative binding
Experimental: as §1, §2

[3] = target: T1, FcγRIIb extracellular domain with …; test: as above
Experimental: as §1, §2

T2 sequence (P12314 16-292): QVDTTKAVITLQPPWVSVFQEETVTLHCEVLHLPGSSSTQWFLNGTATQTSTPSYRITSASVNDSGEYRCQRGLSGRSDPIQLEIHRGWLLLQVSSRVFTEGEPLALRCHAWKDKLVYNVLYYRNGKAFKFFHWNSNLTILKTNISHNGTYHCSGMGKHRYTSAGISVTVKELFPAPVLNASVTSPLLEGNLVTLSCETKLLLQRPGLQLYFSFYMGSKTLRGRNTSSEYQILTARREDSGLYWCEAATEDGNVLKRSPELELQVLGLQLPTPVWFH

Binder	He_1a/2b (Ia/IIb) [1] [ratio]	He/Con_1a [2]	He/Con_2b [3]
GpH7-A5/GpH7-B3 variant Q295_01G/GpL16-k0 (antibody, human IgG1, kappa, Heterodimerized anti-glypican-3 IgG1; alteration only in the GpH7-B3 chain, EU numbering; also called He Ab) heavy 1: not shown heavy 2: not shown light: DIVMTQSPLSLPVTPGEPASISCQASESLVHSNRNTYLHWYLQKPGQSPQLLIYKVSNRFSGVPDRFSGSGSGTDFTLKISRVEAEDVGVYYCSQNTHVPPTFGQGTKVEIERTVAAPSVFIFPPSDEQLKSGTASVVCLLNNFYPREAKVQWKVDNALQSGNSQESVTEQDSKDSTYSLSSTLTLSKADYEKHKVYACEVTHQGLSSPVTKSFNRGEC	2.12	97.6 % of GpH7-A5/GpH7-B3/GpL16-k0 (=100)	46 % of GpH7-A5/GpH7-B3/GpL16-k0 (=100)
GpH7-A5/GpH7-B3 variant Q295_03V/GpL16-k0 (antibody, human IgG1, kappa, Heterodimerized anti-glypican-3 IgG1; alteration only in the GpH7-B3 chain, EU numbering; also called He Ab) heavy 1: not shown heavy 2: not shown light: DIVMTQSPLSLPVTPGEPASISCQASESLVHSNRNTYLHWYLQKPGQSPQLLIYKVSNRFSGVPDRFSGSGSGTDFTLKISRVEAEDVGVYYCSQNTHVPPTFGQGTKVEIERTVAAPSVFIFPPSDEQLKSGTASVVCLLNNFYPREAKVQWKVDNALQSGNSQESVTEQDSKDSTYSLSSTLTLSKADYEKHKVYACEVTHQGLSSPVTKSFNRGEC	1.37	104 % of GpH7-A5/GpH7-B3/GpL16-k0 (=100)	75.7 % of GpH7-A5/GpH7-B3/GpL16-k0 (=100)
GpH7-A5/GpH7-B3 variant Q295_07I/GpL16-k0 (antibody, human IgG1, kappa, Heterodimerized anti-glypican-3 IgG1; alteration only in the GpH7-B3 chain, EU numbering; also called He Ab) heavy 1: not shown heavy 2: not shown light: DIVMTQSPLSLPVTPGEPASISCQASESLVHSNRNTYLHWYLQKPGQSPQLLIYKVSNRFSGVPDRFSGSGSGTDFTLKISRVEAEDVGVYYCSQNTHVPPTFGQGTKVEIERTVAAPSVFIFPPSDEQLKSGTASVVCLLNNFYPREAKVQWKVDNALQSGNSQESVTEQDSKDSTYSLSSTLTLSKADYEKHKVYACEVTHQGLSSPVTKSFNRGEC	1.22	103 % of GpH7-A5/GpH7-B3/GpL16-k0 (=100)	84.3 % of GpH7-A5/GpH7-B3/GpL16-k0 (=100)
GpH7-A5/GpH7-B3 variant Q295_05P/GpL16-k0 (antibody, human IgG1, kappa, Heterodimerized anti-glypican-3 IgG1; alteration only in the GpH7-B3 chain, EU numbering; also called He Ab) heavy 1: not shown heavy 2: not shown light: DIVMTQSPLSLPVTPGEPASISCQASESLVHSNRNTYLHWYLQKPGQSPQLLIYKVSNRFSGVPDRFSGSGSGTDFTLKISRVEAEDVGVYYCSQNTHVPPTFGQGTKVEIERTVAAPSVFIFPPSDEQLKSGTASVVCLLNNFYPREAKVQWKVDNALQSGNSQESVTEQDSKDSTYSLSSTLTLSKADYEKHKVYACEVTHQGLSSPVTKSFNRGEC	1.53	103 % of GpH7-A5/GpH7-B3/GpL16-k0 (=100)	67.5 % of GpH7-A5/GpH7-B3/GpL16-k0 (=100)
GpH7-A5/GpH7-B3 variant Q295_04F/GpL16-k0 (antibody, human IgG1, kappa, Heterodimerized anti-glypican-3 IgG1; alteration only in the GpH7-B3 chain, EU numbering; also called He Ab) heavy 1: not shown heavy 2: not shown light: DIVMTQSPLSLPVTPGEPASISCQASESLVHSNRNTYLHWYLQKPGQSPQLLIYKVSNRFSGVPDRFSGSGSGTDFTLKISRVEAEDVGVYYCSQNTHVPPTFGQGTKVEIERTVAAPSVFIFPPSDEQLKSGTASVVCLLNNFYPREAKVQWKVDNALQSGNSQESVTEQDSKDSTYSLSSTLTLSKADYEKHKVYACEVTHQGLSSPVTKSFNRGEC	1.58	102 % of GpH7-A5/GpH7-B3/GpL16-k0 (=100)	64.7 % of GpH7-A5/GpH7-B3/GpL16-k0 (=100)
GpH7-A5/GpH7-B3 variant D270_20W/GpL16-k0 (antibody, human IgG1, kappa, Heterodimerized anti-glypican-3 IgG1; alteration only in the GpH7-B3 chain, EU numbering; also called He Ab) heavy 1: not shown heavy 2: not shown light: DIVMTQSPLSLPVTPGEPASISCQASESLVHSNRNTYLHWYLQKPGQSPQLLIYKVSNRFSGVPDRFSGSGSGTDFTLKISRVEAEDVGVYYCSQNTHVPPTFGQGTKVEIERTVAAPSVFIFPPSDEQLKSGTASVVCLLNNFYPREAKVQWKVDNALQSGNSQESVTEQDSKDSTYSLSSTLTLSKADYEKHKVYACEVTHQGLSSPVTKSFNRGEC	1.96	68 % of GpH7-A5/GpH7-B3/GpL16-k0 (=100)	34.7 % of GpH7-A5/GpH7-B3/GpL16-k0 (=100)
GpH7-A5/GpH7-B3 variant Q295_02A/GpL16-k0 (antibody, human IgG1, kappa, Heterodimerized anti-glypican-3 IgG1; alteration only in the GpH7-B3 chain, EU numbering; also called He Ab) heavy 1: not shown heavy 2: not shown light: DIVMTQSPLSLPVTPGEPASISCQASESLVHSNRNTYLHWYLQKPGQSPQLLIYKVSNRFSGVPDRFSGSGSGTDFTLKISRVEAEDVGVYYCSQNTHVPPTFGQGTKVEIERTVAAPSVFIFPPSDEQLKSGTASVVCLLNNFYPREAKVQWKVDNALQSGNSQESVTEQDSKDSTYSLSSTLTLSKADYEKHKVYACEVTHQGLSSPVTKSFNRGEC	1.31	104 % of GpH7-A5/GpH7-B3/GpL16-k0 (=100)	79.7 % of GpH7-A5/GpH7-B3/GpL16-k0 (=100)
GpH7-A5/GpH7-B3 variant Q295_09D/GpL16-k0 (antibody, human IgG1, kappa, Heterodimerized anti-glypican-3 IgG1; alteration only in the GpH7-B3 chain, EU numbering; also called He Ab) heavy 1: not shown heavy 2: not shown light: DIVMTQSPLSLPVTPGEPASISCQASESLVHSNRNTYLHWYLQKPGQSPQLLIYKVSNRFSGVPDRFSGSGSGTDFTLKISRVEAEDVGVYYCSQNTHVPPTFGQGTKVEIERTVAAPSVFIFPPSDEQLKSGTASVVCLLNNFYPREAKVQWKVDNALQSGNSQESVTEQDSKDSTYSLSSTLTLSKADYEKHKVYACEVTHQGLSSPVTKSFNRGEC	1.65	100 % of GpH7-A5/GpH7-B3/GpL16-k0 (=100)	60.8 % of GpH7-A5/GpH7-B3/GpL16-k0 (=100)
